PMC9911869

Molecular target: recombinant pullulanase from Manihot esculenta Crantz (rMePUL), mature form without the transit peptide (Manihot esculenta Crantz (cassava))
Assay: SEC; purified rMePUL on an MAbPac SEC-1 column (4 x 300 mm), 25 mM phosphate buffer pH 6.8 with 300 mM NaCl, 0.2 mL/min, 30°C, A280; calibrated with Bio-Rad gel filtration standards; monomer and dimer peaks

stoichiometry N: 2
Substance: recombinant pullulanase from Manihot esculenta Crantz (rMePUL), mature form without the transit peptide (enzyme)
